This is an account of results in US20130225493A1 (HEPACORE, published 2013).

Assay [1] concerns the target T1, FGFR4 extracellular domain, immobilized (R4-Fc) (UniProt P22455 22-369).
T1 construct: extracellular domain; also called FDCPR4-Fc
T1 sequence (looked up): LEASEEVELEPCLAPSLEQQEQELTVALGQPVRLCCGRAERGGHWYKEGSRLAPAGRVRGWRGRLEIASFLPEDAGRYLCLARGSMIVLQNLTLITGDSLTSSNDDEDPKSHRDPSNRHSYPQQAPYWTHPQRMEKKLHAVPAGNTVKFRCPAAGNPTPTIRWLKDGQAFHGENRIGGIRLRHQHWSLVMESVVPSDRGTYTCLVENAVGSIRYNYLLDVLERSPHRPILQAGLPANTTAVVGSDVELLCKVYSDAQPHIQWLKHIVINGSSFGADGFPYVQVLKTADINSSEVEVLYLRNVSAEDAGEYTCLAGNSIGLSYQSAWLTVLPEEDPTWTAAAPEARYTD
Kind of assay: functional ELISA on immobilized FGFR. In general terms: ELISA stands for enzyme-linked immunosorbent assay.

For assay [2], the target named is T1, FGFR4 extracellular domain, immobilized …. Kind of assay: ELISA: biotinylated ligand on immobilized FGFR-Fc, HRP-streptavidin. On the procedure:
FIGS. 2A-2D. […] (2A) FGFR1; (2B) FGFR2; (2C) FGFR3 and (2D) FGFR4. Biotinylated FGF-18 (♦) and three FGF-18 variants (Δ37, v1,; Δ45, v2, (▪); and Δ51, v3, (▪)) were added at increasing concentrations to FGFR1-4 anchored to a MaxiSorp ELISA plate. Bound ligands were detected by HRP-streptavidin. Data are the average of duplicate wells.
FGF-18 and the N-terminal truncated variants (FGF-18^Δ37, FGF-18^Δ45 and FGF-18^Δ51) were tested for receptor specificity by binding to immobilized extracellular domain of FGFR1-4 (FIG. 2). Biotinylated FGF's were added at increasing concentrations to FGFR1-4 anchored to a MaxiSorp ELISA plate. Bound ligands were detected by HRP-streptavidin. […] The variants of the present invention are thus shown to be specific for FGFR3-4.

B1: FGF-18^Δ31 (ligand)
chain: MDFRIHVENQTRARDDVSRKQLRLYQLYSRTSGKHIQVLGRRISARGEDGDKYAQLLVETDTFGSQVRIKGKETEFYLCMNRKGKLVGKPDGTSKECVFIEKVLENNYTALMSAKYSGWYVGFTKKGRPRKGPKTRENQQDVHFMKRYPKGQPELQKPFKYTTVTKRSRRIRPTHPA
modifications: biotinylation not stated for the functional ELISA of Table 4
notes: E. coli expressed
Usually EC50 stands for the concentration giving half of the maximal effect. In the case of B1, the EC50 in assay [1] was 9.36 ng/mL.

B2: FGF-18^Δ51 (ligand)
chain: MLRLYQLYSRTSGKHIQVLGRRISARGEDGDKYAQLLVETDTFGSQVRIKGKETEFYLCMNRKGKLVGKPDGTSKECVFIEKVLENNYTALMSAKYSGWYVGFTKKGRPRKGPKTRENQQDVHFMKRYPKGQPELQKPFKYTTVTKRSRRIRPTHPA
modifications: biotinylated in the immobilized receptor assays (sites not given)
notes: E. coli expressed; Numbering includes the signal peptide (1-27); also called v3
Consider B2, for which the EC50 in assay [1] was 10.6 ng/mL; in assay [2], 9.93 ng/mL.

B3: FGF-18 (recombinant wild type, mature form without the signal peptide) (ligand)
chain: MENVDFRIHVENQTRARDDVSRKQLRLYQLYSRTSGKHIQVLGRRISARGEDGDKYAQLLVETDTFGSQVRIKGKETEFYLCMNRKGKLVGKPDGTSKECVFIEKVLENNYTALMSAKYSGWYVGFTKKGRPRKGPKTRENQQDVHFMKRYPKGQPELQKPFKYTTVTKRSRRIRPTHPA
modifications: biotinylated in the immobilized receptor assays (sites not given)
notes: Expressed in E. coli from pET9a and purified on heparin Sepharose; also called FGF-18 wild type; F18 w.t
With B3, the EC50 in assay [1] was determined as 10.2 ng/mL; in assay [2], 9.23 ng/mL.

B4: FGF-18^Δ33 (ligand)
chain: MRIHVENQTRARDDVSRKQLRLYQLYSRTSGKHIQVLGRRISARGEDGDKYAQLLVETDTFGSQVRIKGKETEFYLCMNRKGKLVGKPDGTSKECVFIEKVLENNYTALMSAKYSGWYVGFTKKGRPRKGPKTRENQQDVHFMKRYPKGQPELQKPFKYTTVTKRSRRIRPTHPA
modifications: biotinylation not stated for the functional ELISA of Table 4
notes: E. coli expressed; Numbering includes the signal peptide (1-27)
Turning to B4, the EC50 in assay [1] was found to be 7.11 ng/mL.

B5: FGF-18^Δ37 (ligand)
chain: MENQTRARDDVSRKQLRLYQLYSRTSGKHIQVLGRRISARGEDGDKYAQLLVETDTFGSQVRIKGKETEFYLCMNRKGKLVGKPDGTSKECVFIEKVLENNYTALMSAKYSGWYVGFTKKGRPRKGPKTRENQQDVHFMKRYPKGQPELQKPFKYTTVTKRSRRIRPTHPA
modifications: biotinylated in the immobilized receptor assays (sites not given)
notes: E. coli expressed; Numbering includes the signal peptide (1-27); also called v1
Regarding B5, the EC50 in assay [1] was determined as 8.28 ng/mL; in assay [2] it was 5.86 ng/mL.

B6: FGF-18^Δ45 (ligand)
chain: MDVSRKQLRLYQLYSRTSGKHIQVLGRRISARGEDGDKYAQLLVETDTFGSQVRIKGKETEFYLCMNRKGKLVGKPDGTSKECVFIEKVLENNYTALMSAKYSGWYVGFTKKGRPRKGPKTRENQQDVHFMKRYPKGQPELQKPFKYTTVTKRSRRIRPTHPA
modifications: biotinylated in the immobilized receptor assays (sites not given)
notes: E. coli expressed; Numbering includes the signal peptide (1-27); also called v2
Turning to B6, the EC50 in assay [2] came to 8.1 ng/mL.
